Key:
[1] = target: T1, Recombinant human VEGFA (Sino Biological, catalog number 11066-HNAB) (human); experiment: competitive ELISA against VEGFR2 on coated VEGFA, relative to Avastin control
T1 construct: also called VEGF antigen; Human/Cynomolgus VEGF/VEGFA/VEGF165 Protein
T1 chain: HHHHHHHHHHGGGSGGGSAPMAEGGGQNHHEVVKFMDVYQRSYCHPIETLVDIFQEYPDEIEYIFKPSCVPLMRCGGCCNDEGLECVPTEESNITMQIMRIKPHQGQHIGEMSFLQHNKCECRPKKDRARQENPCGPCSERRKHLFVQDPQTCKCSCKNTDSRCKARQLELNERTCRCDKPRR

[2] = target: T2, Recombinant human PD-1 (prepared by Suzhou Junmeng Biopharm Co., Ltd. according to the sequence of NCBI … (human, UniProt Q15116 25-170, limits assumed)); experiment: competitive ELISA against PD-L1 hFc on coated PD-1, relative to TAB001 (JS001) control
T2 construct: Soluble recombinant protein used in BLI and coated in ELISA; also called antigen PD-1

[3] = target: T1, Recombinant human VEGFA (Sino …); experiment: BLI (Octet RED96e), told of the group
[4] = target: T2, Recombinant human PD-1 (prepared by …); experiment: competitive ELISA, PD-1 coated, competitor Biotin-PD-L1 hFc at 4.0 µg/mL (FIG. 9b)
[5] = target: T1, Recombinant human VEGFA (Sino …); experiment: indirect ELISA, human VEGFA coated at 0.5 µg/mL (FIG. 7b)
[6] = target: T1, Recombinant human VEGFA (Sino …); experiment: competitive ELISA, VEGFA coated, competitor biotinylated VEGFR2 at 0.3 µg/mL (FIG. 8b)
[7] = target: T2, Recombinant human PD-1 (prepared by …); experiment: BLI (Octet RED96e), antibody captured at 5 µg/mL, PD-1 at 210 and 70 nM
[8] = target: T1, Recombinant human VEGFA (Sino …); experiment: indirect ELISA on coated human VEGFA, relative to Avastin control
[9] = target: T1, Recombinant human VEGFA (Sino …); experiment: cell-based or functional assay
[10] = target: Human PD-1 on the cell surface (Jurkat PD-1 effector cells, Promega); CD4 T cells in the mixed lymphocyte … (human, UniProt Q15116 25-288); experiment: cell-based or functional assay
[11] = target: T2, Recombinant human PD-1 (prepared by …); experiment: indirect ELISA, human PD-1 coated at 0.3 µg/mL (FIG. 6b)
[12] = target: T2, Recombinant human PD-1 (prepared by …); experiment: indirect ELISA on coated human PD-1, relative to TAB001 (JS001) control
[13] = target: T1, Recombinant human VEGFA (Sino …); experiment: BLI (Octet), antibody captured at 5 µg/mL, VEGFA at 25 and 12.5 nM

B1: Bispecific antibody molecule 28 (bispecific antibody, human IgG4 S228P, kappa)
light: EVQLVESGGGLVQPGGSLRLSCAISGFSLAATDIDWVRQAPGKGLEWVARIFSPSDFTDYADSVKGRFTISADTSKNTVYLQMNSLRAEDTAVYYCGRPDTYAYNIFLDTPTYNALHYRGQGTLVTVSSGGGGSGGGGSGGGGSDVVMTQSPLSLPVTLGQPASISCRSSQSIVHSNGNTYLEWYLQKPGQSPQLLIYKVSNRFSGVPDRFSGSGSGTDFTLKISRVEAEDVGVYYCFQGSHVPLTFGQGTKLEIKRTVAAPSVFIFPPSDEQLKSGTASVVCLLNNFYPREAKVQWKVDNALQSGNSQESVTEQDSKDSTYSLSSTLTLSKADYEKHKVYACEVTHQGLSSPVTKSFNRGEC
heavy: not shown
notes: Anti-PD-1 IgG4 (JS001) with the anti-VEGF VHH at the N-terminus of each light chain; also called Antibody 28; antibody 28 (IgG4)
Relative binding activity (%) [1]: 163%
Relative binding activity (%) [2]: 45%
Kd [3]: < 0.5 nM
IC50 [4]: 573 nM
EC50 [5]: 6.17 nM
IC50 [6]: 1860 nM
Kd [7]: 1.67 nM
koff [7]: 5.96e-05 s⁻¹
kon [7]: 35800 M⁻¹ s⁻¹
Relative binding activity (%) [8]: 57%
IC50, VEGFA-induced proliferation of HUVEC cells [9]: 150 nM
EC50, PD-1/PD-L1 luciferase reporter gene system (Jurkat PD-1 / CHO PD-L1) [10]: 26.1 nM
EC50 [11]: 59.5 nM
Relative binding activity (%) [12]: 31%
Kd [13]: 0.0147 nM
koff [13]: 1.88e-05 s⁻¹
kon [13]: 1.28e+06 M⁻¹ s⁻¹
